Test results from paper PMC11039992, “Distinct functions for the paralogous RBM41 and U11/U12-65K proteins in the minor spliceosome”.

T1: RBM41 RRM (C-terminal fragment) (Homo sapiens, UniProt Q96IZ5 267-413)
T1 sequence: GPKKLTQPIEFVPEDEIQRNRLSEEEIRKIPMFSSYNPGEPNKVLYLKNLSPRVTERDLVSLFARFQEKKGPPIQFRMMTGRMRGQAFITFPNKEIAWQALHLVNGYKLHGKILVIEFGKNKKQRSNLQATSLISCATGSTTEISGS

T2: U11/U12-65K C-terminal RRM (65K C-RRM) (Homo sapiens, UniProt Q96LT9 380-517)
T2 sequence: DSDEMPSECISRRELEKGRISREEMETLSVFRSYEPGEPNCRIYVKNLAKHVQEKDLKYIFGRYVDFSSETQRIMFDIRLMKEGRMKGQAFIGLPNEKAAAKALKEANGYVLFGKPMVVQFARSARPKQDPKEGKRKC


Key:
[1] = target: T1, RBM41 RRM (C-terminal fragment); assay: EMSA; 20 mM HEPES-KOH pH 8.0, 100 mM KCl, 1.5 mM MgCl2, 5% glycerol, 0.1 ug/ul BSA, 1 ug/ul yeast RNA, 1 U/ul RiboLock; 5 nM RNA, 0.25-25 uM protein; 1 h on ice, gel; conditions: protein: recombinant; tags: GST tag removed with PreScission protease (untagged); label: 5' 32P; hairpin
[2] = target: T2, U11/U12-65K C-terminal RRM (65K C-RRM); assay: as above; conditions: protein: recombinant; tags: GST tag removed with PreScission protease (untagged); label: 5' 32P; hairpin

Binder | Kd [1] | Kd [2] | binding result [1] | binding result [2]
CCCGCCUACUUUGCGGG (structured_RNA) [U12-(109-125) hairpin] | 2140 nM | 1040 nM |  | 
GCCACCUACUUCGUGGC (structured_RNA) [U6atac-(92-108) hairpin] | 3780 nM | 2070 nM |  | 
GGGCGGAUGAAACGCCC (structured_RNA) [U12comp control hairpin] |  |  | no binding | no binding
